± gives the uncertainty stated by the source.

B1: Chromodomain-helicase-DNA-binding protein 3, residues 374 to 426; numbered along this chain, Q12873 (parent)
chain: YETDHQDYCEVCQQGGEIILCDTCPRAYHLVCLDPELDRAPEGKWSCPHCEKE

The variants in this series derive from B1. The experiment in a line: abundance fitness (aPCA) (normalised: wild type 0, dead -1); higher = more abundant; growth selection in yeast, the domain comes from the species named. Conditions: Homo sapiens.
With S46H, the abundance fitness is -0.526 ± 0.32. With L30M the figure was 0.067 ± 0.088; with L30S, -0.202 ± 0.097. With L30P the figure was 0.021 ± 0.11; with L30N, -0.197 ± 0.18. L30V: the abundance fitness is -0.014 ± 0.1. For E17V the value was -0.489 ± 0.11; for E17P, -0.558 ± 0.14.

For E17G, the abundance fitness is -0.234 ± 0.094. For E17S the value was -0.087 ± 0.094; for G16T, 0.234 ± 0.13; for W45S, -0.224 ± 0.12. For the variant W45M, the abundance fitness was -0.268 ± 0.16. As to W45G, the abundance fitness is -0.312 ± 0.1. For H29P the value was -0.801 ± 0.17; for H29D, -0.615 ± 0.15; for H29I, -1.09 ± 0.22. For H29V the value was -0.745 ± 0.11; for P48K, -0.109 ± 0.13. With P48Q the figure was -0.078 ± 0.2; with P48N, -0.014 ± 0.18; with C47E, -1.08 ± 0.21. As to C47S, the abundance fitness was -0.814 ± 0.16.

In the case of C47D, the abundance fitness is -0.512 ± 0.21.

For the variant C47F, the abundance fitness was -0.465 ± 0.19. In the case of Q6G, the abundance fitness is -0.299 ± 0.21. With Q6Y the figure was -0.267 ± 0.14. In the case of G43M, the abundance fitness was -0.039 ± 0.21. For G43V the value was 0.054 ± 0.1; for G43T, -0.128 ± 0.18. With G43A the figure was -0.314 ± 0.15.

Turning to G43D, the abundance fitness is -0.031 ± 0.16. With G43Y the figure was -0.277 ± 0.17; with G43N, 0.204 ± 0.14. T23H: the abundance fitness was -0.146 ± 0.13.

With T23F, the abundance fitness is -0.035 ± 0.11.

Turning to T23M, the abundance fitness is 0.024 ± 0.2. For T23G the value was -0.248 ± 0.2; for P25D, -0.482 ± 0.28; for P25R, -0.235 ± 0.12. As to P25C, the abundance fitness turned out to be 0.04 ± 0.18. With A27K the figure was -0.407 ± 0.41; with L20V, -0.078 ± 0.099; with L20K, 0.081 ± 0.11. For L20R the value was 0.149 ± 0.094; for L20Y, 0.102 ± 0.16; for L20M, 0.047 ± 0.12. For D34C the value was -0.316 ± 0.15. Consider D34N, for which the abundance fitness is -0.189 ± 0.11. With D34G the figure was -0.156 ± 0.099; with D34S, -0.127 ± 0.091; with Y28I, 0.013 ± 0.13. For Y28G the value was -0.191 ± 0.14. Regarding Y28E, the abundance fitness is -0.48 ± 0.21.

As to Y28V, the abundance fitness is -0.284 ± 0.11. With Y28A the figure was 0.122 ± 0.12; with D4T, 0.079 ± 0.12; with D4R, -0.203 ± 0.11. With D4A the figure was 0.133 ± 0.085. For D4H the value was -0.136 ± 0.22; for D4G, -0.001 ± 0.091; for D4Q, 0.075 ± 0.13. On to D4F, for which the abundance fitness is -0.055 ± 0.12. With D4W the figure was -0.088 ± 0.13; with D4N, -0.406 ± 0.15.

As to D4L, the abundance fitness worked out at 0.077 ± 0.086. For E10A the value was -0.083 ± 0.11; for E10R, 0.027 ± 0.086; for E10F, -0.08 ± 0.14. With E10D the figure was 0.169 ± 0.13; with E10V, 0.137 ± 0.1. For E10H the value was 0.114 ± 0.16; for I19M, 0.313 ± 0.14; for I19T, 0.051 ± 0.11. For I19R, the abundance fitness was -0.101 ± 0.1. Regarding I19Q, the abundance fitness worked out at 0.068 ± 0.16.

Consider P41C, for which the abundance fitness is -0.344 ± 0.17. For P41S the value was -0.045 ± 0.11; for D38K, -0.518 ± 0.24; for D38L, -0.216 ± 0.11. For D38Q the value was -0.326 ± 0.19; for E36F, -0.083 ± 0.19; for E36I, -0.145 ± 0.26. In the case of E36Y, the abundance fitness was -0.405 ± 0.32. With E36P the figure was -0.039 ± 0.15. For E36H the value was -0.15 ± 0.23; for Y1K, 0.352 ± 0.46; for Y1V, 0.156 ± 0.2.

Turning to E42H, the abundance fitness stood at 0.164 ± 0.21. With E42C the figure was -0.005 ± 0.13; with E42R, -0.232 ± 0.11. For E42G, the abundance fitness was found to be 0.003 ± 0.1. For E42P the value was -0.138 ± 0.2; for C12K, -0.757 ± 0.15; for C12P, -0.76 ± 0.13. With C12D the figure was -0.7 ± 0.34. For C12S the value was -0.956 ± 0.11. On to H5R, for which the abundance fitness was 0.118 ± 0.093. For H5T the value was 0.186 ± 0.11; for H5S, 0.302 ± 0.1. Turning to V31H, the abundance fitness came out at 0.038 ± 0.13. With V31N the figure was -0.314 ± 0.12; with V31E, -0.229 ± 0.14.

Regarding V31Y, the abundance fitness is -0.297 ± 0.17. With V31D, the abundance fitness is -0.18 ± 0.15. With Q14L the figure was -0.127 ± 0.1; with Q14I, -0.17 ± 0.17; with Q14V, -0.129 ± 0.14. With Q14T the figure was -0.051 ± 0.1; with Q14N, 0.016 ± 0.15; with Q14M, -0.022 ± 0.14. For Q14E the value was -0.029 ± 0.43; for H49C, -0.456 ± 0.22; for H49P, -0.334 ± 0.24. On to H49Q, for which the abundance fitness was -0.034 ± 0.27. With H49F the figure was -0.244 ± 0.33; with H49T, -0.011 ± 0.23.

In the case of H49E, the abundance fitness is -0.062 ± 0.17.

On to L37F, for which the abundance fitness is -0.426 ± 0.16.

For L37H, the abundance fitness was -0.037 ± 0.17. For the variant T3M, the abundance fitness amounted to 0.377 ± 0.11.

With T3V, the abundance fitness is -0.055 ± 0.093. For T3I the value was -0.035 ± 0.14.

For T3A, the abundance fitness was -0.179 ± 0.1. Consider T3E, for which the abundance fitness was 0.314 ± 0.14. With I18P the figure was -0.191 ± 0.12; with I18C, -0.521 ± 0.19.

As to I18Y, the abundance fitness amounted to 0.162 ± 0.13.

On to I18K, for which the abundance fitness was -0.124 ± 0.15.
